These results are taken from paper PMC5624674.

The labels stand for the following.
B1: unnamed (parent)
chain 1: MKTLPVLPGQAASSRPSPVEIWQILLSRLLDQHYGLTLNDTPFADERVIEQHIEAGISLCDAVNFLVEKYALVRTDQPGFSACTRSQLINSIDILRARRATGLMTRDNYRTVNNITLGKYPEAK
chain 2: MLKKFRGMFSNDLSIDLGTANTLIYVKGQGIVLNEPSVVAIRQDRAGSPKSVAAVGHDAKQMLGRTPGNIAAIRPMKDGVIADFFVTEKMLQHFIKQVHSNSFMRPSPRVLVCVPVGATQVERRAIRESAQGAGAREVFLIEEPMAAAIGAGLPVSEATGSMVVDIGGGTTEVAVISLNGVVYSSSVRIGGDRFDEAIINYVRRNYGSLIGEATAERIKHEIGSAYPGDEVREIEVRGRNLAEGVPRGFTLNSNEILEALQEPLTGIVSAVMVALEQCPPELASDISERGMVLTGGGALLRNLDRLLMEETGIPVVVAEDPLTCVARGGGKALEMIDMHGGDLFSEE
B2: unnamed (parent)
chain 1: B1 chain 1
chain 2: MFEPMELTNDAVIKVIGVGGGGGNAVEHMVRERIEGVEFFAVNTDAQALRKTAVGQTIQIGSGITKGLGAGANPEVGRNAADEDRDALRAALEGADMVFIAAGMGGGTGTGAAPVVAEVAKDLGILTVAVVTKPFNFEGKKRMAFAEQGITELSKHVDSLITIPNDKLLKVLGRGISLLDAFGAANDVLKGAVQGIAELITRPGLMNVDFADVRTVMSEMGYAMMGSGVASGEDRAEEAAEMAISSPLLEDIDLSGARGVLVNITAGFDLRLDEFETVGNTIRAFASDNATVVIGTSLDPDMNDELRVTVVATGIGMDKRPEITLVTNKQVQQPVMDRYQQHGMAPLTQEQKPVAKVVNDNAPQTAKEPDYLDIPAFLRKQAD
B3: α-FtsZ fusion protein (wild-type E. coli FtsZ) [E. coli] / α-FtsZ fusion protein (wild-type E. coli FtsZ) [E. coli] (parent)
chain 1: B2 chain 2
chain 2: B2 chain 2

The variants in the first assay derive from B1. The assay is described as follows: bacterial two-hybrid β-galactosidase assay. The following applies: with partner chain of the complex shown; 100 μM IPTG; parent: 310; read off a plot.
For chain 1 F65S, the response worked out at 330 Miller Units.

For chain 1 R15C, the response was determined as 130 Miller Units.

In a further assay the parent is B2. Kind of assay: bacterial two-hybrid β-galactosidase assay. The following applies: with partner chain of the complex shown; 100 μM IPTG; parent: 2e+03; read off a plot.
For the variant chain 2 L179R, the response was 250 Miller Units.

As to chain 2 F182S, the response came out at 260 Miller Units.

Still in this assay, the particulars now being: with partner chain of the complex shown; 25 μM IPTG; parent: 1.5e+03; read off a plot.
For the variant chain 1 R15C, the response is 1300 Miller Units.

As for chain 1 F65S, the response was determined as 75 Miller Units.

The variants in the next assay derive from B3. Kind of assay: bacterial two-hybrid β-galactosidase assay. The following applies: with α-FtsZ fusion protein (wild-type E. coli FtsZ) [E. coli]; 100 μM IPTG; parent: 320; read off a plot.
For chain 1 L179R, the response came out at 250 Miller Units.

Consider chain 1 F182S, for which the response stood at 260 Miller Units.
